Experimental data: patent publication US20210115426A1 (BOARD OF REGENTS OF THE UNIVERSITY OF OKLAHOMA, published 2021)
Each block holds one binder with its values, some of them ahead of it. Non-standard residues stand in square brackets, D forms with d. No end group written: not given here. AEEA = NCCOCCOCC(=O)O

Experiments:
amyloid β1-42 (Aβ1-42) [1] = target: T1, amyloid β1-42 (Aβ1-42) (UniProt P05067 672-713); assay: ELISA, peptide coated at 5 µg/ml, 150 nM Aβ1-42 added, anti-Aβ antibody, A492 (FIG. 3)
T1 construct: domain: Aβ1-42; Added in solution at 150 nM in the ELISA; Aβ1-42 is a fragment of it; also called amyloid beta; the 42-amino acid form of Aβ
Experimental: (§1) BSA was from Sigma Aldrich. […] Plate coating was done at room temperature for 2 hours with shaking and then at 4° C. overnight. Plates were washed three times in PBST (PBS+0.05% tween), then blocked with 3% BSA in PBST for 1 hour at room temperature with shaking. […] Plates were then washed 4 times with PBST and monoclonal mouse anti-amyloid precursor protein/amyloid beta antibody, purchased from Cell Signaling Technology was added at a 1:500 dilution in 1% BSA in PBST and incubated for 1 hour at room temperature with shaking. Plates were washed 4× in PBST and donkey anti mouse HRP-conjugated secondary antibody from Jackson ImmunoResearch Laboratories was added at 1:10,000 in PBST and incubated 1 hour at room temperature with shaking, then washed 4 times in PBST. […] Sulfuric acid (5N) was added to each well to stop the reaction, and the absorbance at 492 nm was read on a Biotek Synergy II plate reader.

amyloid β1-42 (Aβ1-42) [2] = target: T1, amyloid β1-42 (Aβ1-42); assay: cell-based or functional assay
amyloid β1-42 (Aβ1-42) [3] = target: T1, amyloid β1-42 (Aβ1-42); assay: ELISA, peptide coated at 5 µg/ml, 150 nM Aβ1-42 added, anti-Aβ antibody, A492 (FIG. 2)
Experimental: as §1

amyloid β1-42 (Aβ1-42) [4] = target: T1, amyloid β1-42 (Aβ1-42); assay: ELISA, peptide coated, Aβ1-42 added (FIG. 21)
Experimental: as §1

amyloid β1-42 (Aβ1-42) [5] = target: T1, amyloid β1-42 (Aβ1-42); assay: ELISA, peptide coated, Aβ1-42 added, anti-Aβ antibody, absorbance at 492 nm (FIG. 21)
Experimental: as §1

T1 sequence (P05067 672-713 limits assumed): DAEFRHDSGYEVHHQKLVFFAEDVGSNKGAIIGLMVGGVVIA

IC50 of inhibition of Aβ1-42 fibrillation (Thioflavin T fluorescence) (amyloid β1-42 (Aβ1-42) [2]): ~1 µM | molar ratio peptide/Aβ1-42 at the IC50 of fibrillation (amyloid β1-42 (Aβ1-42) [2]): ~0.1 molar ratio
Binder: [AEEA][AEEA]RRRRGTRCQVAGWGSWRSGGRLSRFPRFVNVR [CAP37-derived peptide 120-146 WR 5RMP]

IC50 of inhibition of Aβ1-42 fibrillation (Thioflavin T fluorescence) (amyloid β1-42 (Aβ1-42) [2]): 0.876 µM | fold increase of the fibrillation IC50 in the presence of PMSF (amyloid β1-42 (Aβ1-42) [2]): 3.5 fold | molar ratio CAP37/Aβ1-42 at the IC50 of fibrillation (amyloid β1-42 (Aβ1-42) [2]): 0.091 molar ratio
B1: cationic antimicrobial protein of 37 kDa (CAP37), full-length (enzyme, human, UniProt P20160 27-248, looked up)
chain: IVGGRKARPRQFPFLASIQNQGRHFCGGALIHARFVMTAASCFQSQNPGVSTVVLGAYDLRRRERQSRQTFSISSMSENGYDPQQNLNDLMLLQLDREANLTSSVTILPLPLQNATVEAGTRCQVAGWGSQRSGGRLSRFPRFVNVTVTPEDQCRPNNVCTGVLTRRGGICNGDGGTPLVCEGLAHGVASFSLGPCGRGPDFFTRVALFRDWIDGVLNNPGP

binding result (amyloid β1-42 (Aβ1-42) [1]): binds
Binder: [AEEA][AEEA]RRRRNQGRHFCGGALIHARFVMTAASCFQR (cysteine pairing not given here, also called 20-44 CC 5RMP) [5RMP-modified CAP37-derived peptide 20-44 CC]

IC50 of inhibition of Aβ1-42 fibrillation (Thioflavin T fluorescence) (amyloid β1-42 (Aβ1-42) [2]): 0.0038 µM | fold increase of the fibrillation IC50 in the presence of chymostatin (amyloid β1-42 (Aβ1-42) [2]): 17 fold | molar ratio CG/Aβ1-42 at the IC50 of fibrillation (amyloid β1-42 (Aβ1-42) [2]): 0.00038 molar ratio
B2: cathepsin G (CG), full-length (enzyme, human, UniProt P08311 21-244, looked up)
chain: IIGGRESRPHSRPYMAYLQIQSPAGQSRCGGFLVREDFVLTAAHCWGSNINVTLGAHNIQRRENTQQHITARRAIRHPQYNQRTIQNDIMLLQLSRRVRRNRNVNPVALPRAQEGLRPGTLCTVAGWGRVSMRRGTDTLREVQLRVQRDRQCLRIFGSYDPRRQICVGDRRERKAAFKGDSGGPLLCNNVAHGIVSYGKSSGVPPEVFTRVSSFLPWIRTTMRS

binding result (amyloid β1-42 (Aβ1-42) [5]): no binding
Binder: GTLCTVAGWGSMRRGTDTLREVQL [CG-derived mutant peptide CG119-144 ΔR129V130]

The remaining lines, values behind:

Binder: [AEEA][AEEA]RRRRGTRCQVAGWGSQRSGGRLSRFPRFVNVR [5RMP-modified CAP37-derived peptide 120-146 QR]
binding result (amyloid β1-42 (Aβ1-42) [1]): binds

Binder: NQGRHFCGGALIHARFVMTAASCFQ (also called CAP3720-44) [CAP37-derived peptide 20-44 CC (wild-type)]
binding result (amyloid β1-42 (Aβ1-42) [3]): binds

Binder: GTLCTVAGWGRVSMRRGTDTLREVQL [CG-derived peptide CG119-144 (wild-type)]
binding result (amyloid β1-42 (Aβ1-42) [4]): binds

Binder: GTLCTVAGWGRVSMRRGTRTLREVQL [CG-derived mutant peptide CG119-144 D137R]
IC50 of inhibition of Aβ1-42 fibrillation (Thioflavin T fluorescence) (amyloid β1-42 (Aβ1-42) [2]): 3.1 µM | molar ratio peptide/Aβ1-42 at the IC50 of fibrillation (amyloid β1-42 (Aβ1-42) [2]): 0.33 molar ratio

Binder: GTRCQVAGWGSQRSGGRLSRFPRFVNV [CAP37-derived peptide 120-146 QR (wild-type)]
binding result (amyloid β1-42 (Aβ1-42) [3]): binds

Binder: GTRCQVAGWGSWRSGGRLSRFPRFVNV [CAP37-derived peptide 120-146 WR (mutant)]
IC50 of inhibition of Aβ1-42 fibrillation (Thioflavin T fluorescence) (amyloid β1-42 (Aβ1-42) [2]): ~1 µM | molar ratio peptide/Aβ1-42 at the IC50 of fibrillation (amyloid β1-42 (Aβ1-42) [2]): ~0.1 molar ratio

Binder: GTLCTVAGWGRVSMRRGTDTLRPRVQL [CG-derived mutant peptide CG119-144 E141PR]
binding result (amyloid β1-42 (Aβ1-42) [4]): binds
